Here are results for two substances from patent US20120317681A1.

Assay [1] concerns the target Cry1Ca receptor protein(s) / binding site on Brush Border Membrane Vesicles (BBMV's) from Spodoptera frugiperda (Spodoptera frugiperda). Description: homologous competition; displacement of 0.5 nM 125I-labeled Cry1Ca core toxin from S. frugiperda BBMV (150 ug/mL).
Assay [2] has the same target. Description: heterologous competition; displacement of 0.5 nM 125I-labeled Cry1Ca core toxin from S. frugiperda BBMV (150 ug/mL).

“Cry1Ca core toxin protein (non-radiolabeled, trypsin-activated) (from UniProt P0A376 28-618) (ligand)” gave an IC50 in assay [1] of 5 nM. Consider “Cry1Fa core toxin protein (non-labeled, trypsin-activated) (from UniProt Q03746 28-605) (ligand)”, for which the half-maximal inhibitory concentration (IC50) in assay [2] was more than 300 nM.

The IC50 is the concentration at which inhibition is half-maximal.
